In paper PMC8839947, “Highly Sensitive RNA-Based Electrochemical Aptasensor for the Determination of C-Reactive Protein Using Carbon Nanofiber-Chitosan Modified Screen-Printed Electrode”:

Molecular target: T1, C-reactive protein (CRP) (UniProt P02741 19-224)
T1 sequence: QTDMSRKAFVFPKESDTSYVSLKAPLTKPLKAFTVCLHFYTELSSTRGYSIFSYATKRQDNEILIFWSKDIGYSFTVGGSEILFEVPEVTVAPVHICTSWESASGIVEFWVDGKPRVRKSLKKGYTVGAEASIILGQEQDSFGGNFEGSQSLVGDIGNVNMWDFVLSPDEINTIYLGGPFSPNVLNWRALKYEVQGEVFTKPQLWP
Assay: square-wave voltammetry (Langmuir isotherm, MB signal-off electrode); 2 mM CaCl2; 60 min incubation; KL 1.07 pM-1; CRP incubation in 0.1 M Tris pH 7.4, 2 mM CaCl2, 60 min; SWV read-out in PBS (0.1 M, pH 7.4); BSA-blocked electrode; incubation temperature not stated (298 K used in calculations)
Conditions: protein: commercial; chain copies: 5; label: methylene blue self-assembled (non-covalent); immobilized via glutaraldehyde on CNFs-chitosan carbon screen-printed electrode

B1: CRP RNA aptamer (5'-amino) (structured_RNA)
RNA: GCCUGUAAGGUGGUCGGUGUGGCGAGUGUGUUAGGAGAGAUUGC
modifications: 5'-NH2-(CH2)6
Kd: 0.93 pM
